Assay: yeast display, Sf9 membrane polyspecificity reagent, FACS + sequencing; frameworks hold sequencing errors
Summary of the method: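 Genes from sorted yeast were amplified by colony PCR, read by MiSeq 2 × 250 sequencing and filtered on CDR length. These cells carried a synthetic nanobody library in Saccharomyces cerevisiae BJ5465 and were sorted by FACS into low and high (top ~1%) gates on anti-HA and streptavidin fluorescence. Polyreactivity is labelled according to the gate of origin.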

| Sequence | polyreactivity (PSR sort gate) |
| --- | --- |
| QVQLVESGGGLVQAGGSLRLSCAASGSTFGFNAMGWYRQAPGKERELVAAIRGGDSTNYADSVKGRFTISRDNAKNTVYLQMNSLKPEDTAVYYCAAVLRYVVRPYSYWSGGYDYWGQGTQVTVSS | high polyreactivity |
| QVQLVESGGGLVQAGGSLRLSCAASGSTFGFNAMGWYRQAPGKERELVAAISRSGGSTYYADSVKGRFTISRDNAKNTVYLQMNSLKPEDTAVYYCAVGYRYLKWVDYWGQGTQVTVSS | high polyreactivity |
| QVQLVESGGGLVQAGGSLRLSCAASGSTFGFNAMGWYRQAPGKERELVASITSGDSTYYADSVKGRFTISRDNAKNTVYLQMNSLKPEDTAVYYCAKVGGGGQAGDNPILSDYWGQGTQVTVSS | low polyreactivity |
| QVQLVESGGGLVQAGGSLRLSCAASGSTFGFNVMGWYRPAPGKERELVAAIRYRDGSTYYADSVKGRFTISRDNAKNTVYLQMNSLKPEDTAVYYCNTRITQVGDYIYDYWGQGTQVTVSS | low polyreactivity |
| QVQLVESGGGLVQAGGSLRLSCAASGSTFGFNVMGWYRQAPGKERELVAVITSDGNTYYADSVKGRFTISRDNAKNTVYLQMNSLKPEDTAVYYCAVSELGTPYGYWGQGTQVTVSS | low polyreactivity |
| QVQLVESGGGLVQAGGSLRLSCAASGSTFGFYAMGWYRQAPGKERELVAAIDWISGSTYYADSVKGRFTISRDNAKNTVYLQLNSLKPEDTAVYYCAAQFYYHFRYHFDWGQGTQVTVSS | low polyreactivity |
| QVQLVESGGGLVQAGGSLRLSCAASGSTFGGNAMGWYRQAPGKEREFVAAIRFSGGSTYYADSVKGRFTISRDNAKNTVYLQMNSLKPEDTAVYFCAKRGYGHLIPIAYEYWGQGTQVTVSS | low polyreactivity |
| QVQLVESGGGLVQAGGSLRLSCAASGSTFGGNAMGWYRQAPGKERELVAAITVGGDSTYYADSVKGRFTISRDNAKNTVYLQMNSLKPEVTAVYYCAAGPWYKFYDWRPWFSYDYWGQGTQVTVSS | low polyreactivity |
| QVQLVESGGGLVQAGGSLRLSCAASGSTFGGYAKGWYRQAPGKERELVAAISGSGVRTYYADSVKGRFTISRDNAKNTVYLQMNSLKPEDTAVYYCAKRVRYPGDRYYYWGQGTQVTVSS | high polyreactivity |
| QVQLVESGGGLVQAGGSLRLSCAASGSTFGGYAMGWYRQAPGKEREFVAAITKRGGRTYYADSVKGRFTISRDNAKNTVYLQMNSLKPEDTAVYYCATRGINYAEYDYWGQGTQVTVSS | high polyreactivity |
| QVQLVESGGGLVQAGGSLRLSCAASGSTFGGYAMGWYRQAPGKERELVADIDSIGGSTYYADSVKGRFTISRDNAKNTVYLQMNSLKPEDTAVYYCAARRFDTALVLYDYWGQGTQVTVSS | low polyreactivity |
| QVQLVESGGGLVQAGGSLRLSCAASGSTFGGYGMGWYRQAPGQERELVASISGGGNTNYADSVKGRFTISRDNAKNTVYLQKNSLKPEDTAVYYCNARINSWYSTYRYYYWGQGTQVTVSS | low polyreactivity |
| QVQLVESGGGLVQAGGSLRLSCAASGSTFGINAMGWYRQAPGKERELVASITRRGGSTYYADSVKGRFTISRDNAKNTVYLQMHSLKPEDTAVYYCAAGNKRRFEGDYWGQGTQVTVSS | high polyreactivity |
| QVQLVESGGGLVQAGGSLRLSCAASGSTFGIYVMGWYRQAPGKERELVADISSSGGSTYYADSVKGRFTISRDNAKNTVYLQMNSLKPEDTAVYYCNAYHWDGDGVFYEYDYWGQGTQVTVSS | high polyreactivity |
| QVQLVESGGGLVQAGGSLRLSCAASGSTFGKYAMGWYRQAPGKERELVAAISKSGGSTYYADSVKGRFTISRDNAKNTVYLQMNSLKPEDTAVYYCNAYPHAYTGSTREGDYWGQGTQVTVSS | high polyreactivity |
| QVQLVESGGGLVQAGGSLRLSCAASGSTFGKYAMGWYRQAPGKERELVAAITRRTGSTYYADSVKGRFTISRDNAKNTVYLQMNSLKPVDTAVYYCAARLPQYRYDYWGQGTQVTVSS | high polyreactivity |
| QVQLVESGGGLVQAGGSLRLSCAASGSTFGKYAMGWYRQAPGKERELVARIDSGDRTRYADSVKGRFTISRDNAKNTVYLQMNSLKPEDTAVYYCAARYVGARNAYRMGYWGQGTQVTVSS | high polyreactivity |
| QVQLVESGGGLVQAGGSLRLSCAASGSTFGLNVMGWYRQAPGKEREFVAGISRSGGRTYYADSVKGRFTISRDNAKNTVYLQMNSLKPEDTAVYYRAADYWTGITPDAIGDYWGQGTQVTVSS | low polyreactivity |
| QVQLVESGGGLVQAGGSLRLSCAASGSTFGLYAMGWYRQAPGKERELVAAISSGGRTNYADSVKGRFTISRDNAKNTVYLQMNSLKPEDTAVYYCASAYIRGSRRYDYWGQGTQVTVSS | high polyreactivity |
| QVQLVESGGGLVQAGGSLRLSCAASGSTFGLYAMGWYRQAPGKERELVAAITSTGGSTYYADSVKGRFTISRDNAKNTVYLQMNSLKPEDTAVYYCARDYRSGYDYWGQGTQVTVSS | low polyreactivity |
| QVQLVESGGGLVQAGGSLRLSCAASGSTFGLYAMGWYRQAPGKERELVADITWSGGSTYYADSVKGRFTISRDNAKNTVYLQMNSLKPEDTAVYYCAADGYDQYPLWAPPGDYWGQGTQVTVSS | low polyreactivity |
| QVQLVESGGGLVQAGGSLRLSCAASGSTFGLYAMGWYSQAPGKEREMVAVISWRGGSTIYADSVKGRFTISRDNAKITVYLEMNSLKPEDTAVYYCNAKQSYYYPWRGYNYWGQGTQVTVSS | high polyreactivity |

| Sequence | polyreactivity (PSR sort gate) |
| --- | --- |
| QVQLVESGGGLVQAGGSLRLSCAASGSTFGLYTMGWYRQAPGKERELVASISIGGSTYYADSVKGRFTISRDNAKNTVYLQMNSLKPEDTAVYYCAADVKRDRVWGGDYWGQGTQVTVSS | low polyreactivity |
| QVQLVESGGGLVQAGGSLRLSCAASGSTFGLYVMGWYRQAPGKERELVAAISWSGGSTYYADSVKGRFTISRDTAKNTVYLQMNSLKPEDTAVYYCAKVFRTYRYPYGYWGQGTQVTVSS | high polyreactivity |
| QVQLVESGGGLVQAGGSLRLSCAASGSTFGNYAMGWDRQAPGKERELVAAITSSGRTYYADSVKGRFTISRDNAKNTVYFQMNSLKPEDTAVYYCAAKSSRGGSVGFDYWGQGTQVTVSS | high polyreactivity |
| QVQLVESGGGLVQAGGSLRLSCAASGSTFGNYAMGWYRQATGKERELVAASRWSGTRTFYADSVKGRFTISRDNAKNTVYLQMNSLKPEDTAVYYCNAVYSQPGYKGGYSWGQGTQVTVSS | high polyreactivity |
| QVQLVESGGGLVQAGGSLRLSCAASGSTFGPNTMGWYRQAPGKERELVAAINLRGGRTYYADSVKGRFTISRDNAKNTVYLQMNSLKPEDTAVYYCAARFKTTGYDYWGQGTQVTVSS | high polyreactivity |
| QVQLVESGGGLVQAGGSLRLSCAASGSTFGPYAMGWYRQAPGKERELVAAIRSDGGTYYADSVTGRFTISRDNAKNTVYLQMNSLKPEDTAVYYCNAVPVGWRYRQYDYWGQGPQVTVSS | high polyreactivity |
| QVQLVESGGGLVQAGGSLRLSCAASGSTFGPYAMGWYRQAPGKERELVADITVSDGSTYYADSVKGRFTISRDNAKNTVYLQMNSLKPEDTAVYYCAAEIYYSFGYWGQGTQVTVSS | low polyreactivity |
| QVQLVESGGGLVQAGGSLRLSCAASGSTFGPYAMGWYRQAPGKERELVATIRGSGATTYYADSVKGRFTISRDNAKNTVYLQMHSLKPEDTAVYYCATAYFSGWYNRYGRATSYDYWGQGTQVTVSS | high polyreactivity |
| QVQLVESGGGLVQAGGSLRLSCAASGSTFGQYAMGWYRQAPGKELELVAAISSGGRTNYADSVKGRFTISRDNAKNPVYLQMNSLKPEDTAVYYCAARYYFPFRRFRRMDYWGQGTQVTVSS | high polyreactivity |
| QVQLVESGGGLVQAGGSLRLSCAASGSTFGRNAMGWYIQAPGKERELVAAISNRGGRTYYADSVKARFTISRDNAKNTVYFQMNSLKPEDTAVYYCAAEHRVQQGDYWGQGTQVTVSS | high polyreactivity |
| QVQLVESGGGLVQAGGSLRLSCAASGSTFGRNAMGWYRQAPGKEREFVAAISSRGGRTSYADSVKGRFTISRDNAKNTVYLQMNSLKPEDTAVYYCATLGYFSASRTDYDYWGQGTQVTVSS | low polyreactivity |
| QVQLVESGGGLVQAGGSLRLSCAASGSTFGRNAMGWYRQAPGKERELVAAISKTGGSTYYADSVKGRFTISRDNAKNTVYLQMNSLKPEDTAVYYCAARIRGFRTYYYWGQGTQVTVSS | high polyreactivity |
| QVQLVESGGGLVQAGGSLRLSCAASGSTFGRNAMGWYRQAPGKERELVAAISSGGRTYYADSVKGRFTISRDNAKNTVYLQMNSLKPEDTAVYYCARDDYGTLVKLYVRGFNYWGQGTQVTVSS | low polyreactivity |
| QVQLVESGGGLVQAGGSLRLSCAASGSTFGRNARGWYRQAPGKERELVAAITASGGTTYYADSVKGRFTISRDNAKNTVYLQMNSLKPEDTAVYYCNVSYLVYRWNFGWSMDFWGQGTQLTVSS | low polyreactivity |
| QVQLVESGGGLVQAGGSLRLSCAASGSTFGRNTMGWYRQAPGKERELVAAITSGDTTTYADSVKGRFTISRDNAKNTVYLQMNSLKPEDTAVYYCAVDPVRGRDYSWMDYWGQGTQVTVSS | low polyreactivity |
| QVQLVESGGGLVQAGGSLRLSCAASGSTFGRNVIGWYRQAPGKERELVAAISIRGGSTYYADSVKGRFTISRDIAKNTVYLQMNSLKPEDTAVYYCALDYPTDAYDYWGQGTQVTVSS | low polyreactivity |
| QVQLVESGGGLVQAGGSLRLSCAASGSTFGRYAMGWYRPAPGKGRELDGAISRRGGSTYYADSVKGRFTISRDYAMKTVYFQMHSLKPEDTAVYDCATGYPIELGREFDYWGQGIQVTVSS | high polyreactivity |
| QVQLVESGGGLVQAGGSLRLSCAASGSTFGRYVMGWYRPAPGKERELVAAISKNAGSTYYADSVKGRFTISRDNAKNTVYLQMNSLKPEDTAVYYCNAQSFREYGYWGQGTQVTVSS | high polyreactivity |
| QVQLVESGGGLVQAGGSLRLSCAASGSTFGSNAMGWYRQAPGKEREFVAAITWSGGSTYYADSVKGRFTISRDNAKNTVYLQMNSLKPEDTAVYYCAAESDSYFREYDYWGQGTQVTVSS | low polyreactivity |
| QVQLVESGGGLVQAGGSLRLSCAASGSTFGSNAMGWYRQAPGKERELVAAISSSGSTYYADSVKGRFTISRDNAKNTVYLQMNSLKPEDTAVYYSAAPGSPYGYWGQGTQVTVSW | high polyreactivity |
| QVQLVESGGGLVQAGGSLRLSCAASGSTFGSNAMGWYRQAPGKERELVATITRRSGSTYYADSVKGRFTISRDNAKNTVYLQMNSLKPEDTAVYYCARVGFWLQYDYWGQGTQVTVSS | high polyreactivity |

Reference: the nanobody polyreactivity screen of Harvey et al. (2022)
